Assay results: IntAct's records for PubMed 35512704

B1: Mothers against decapentaplegic homolog 4 (Homo sapiens), Q13485 (parent)
chain: MDNMSITNTPTSNDACLSIVHSLMCHRQGGESETFAKRAIESLVKKLKEKKDELDSLITAITTNGAHPSKCVTIQRTLDGRLQVAGRKGFPHVIYARLWRWPDLHKNELKHVKYCQYAFDLKCDSVCVNPYHYERVVSPGIDLSGLTLQSNAPSSMMVKDEYVHDFEGQPSLSTEGHSIQTIQHPPSNRASTETYSTPALLAPSESNATSTANFPNIPVASTSQPASILGGSHSEGLLQIASGPQPGQQQNGFTGQPATYHHNSTTTWTGSRTAPYTPNLPHHQNGHLQHHPPMPPHPGHYWPVHNELAFQPPISNHPAPEYWCSIAYFEMDVQVGETFKVPSSCPIVTVDGYVDPSGGDRFCLGQLSNVHRTEAIERARLHIGKGVQLECKGEGDVWVRCLSDHAVFVQSYYLDREAGRAPGDAVHKIYPSAYIKVFDLRQCHRQMQQQAATAQAAAAAQAAAVAGNIPGPGSVGGIAPAISLSAAAGIGVDDLRRLCILRMSFVKGWGPDYPRQSIKETPCWIEIHLHRALQLLDEVLHTMPIADPQPLD
partner: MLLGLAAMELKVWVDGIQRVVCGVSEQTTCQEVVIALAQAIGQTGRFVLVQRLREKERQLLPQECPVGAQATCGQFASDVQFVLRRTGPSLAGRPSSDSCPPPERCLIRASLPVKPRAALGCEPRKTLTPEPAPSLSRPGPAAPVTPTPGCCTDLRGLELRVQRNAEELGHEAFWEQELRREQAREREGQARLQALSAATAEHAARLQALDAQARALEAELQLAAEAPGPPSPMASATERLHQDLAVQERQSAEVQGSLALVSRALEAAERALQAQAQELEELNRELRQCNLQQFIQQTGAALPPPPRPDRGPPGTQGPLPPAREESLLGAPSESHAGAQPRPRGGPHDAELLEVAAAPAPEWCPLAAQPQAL
B2: Mothers against decapentaplegic homolog 4 (Homo sapiens), Q13485 (parent)
chain: B1 chain
partner: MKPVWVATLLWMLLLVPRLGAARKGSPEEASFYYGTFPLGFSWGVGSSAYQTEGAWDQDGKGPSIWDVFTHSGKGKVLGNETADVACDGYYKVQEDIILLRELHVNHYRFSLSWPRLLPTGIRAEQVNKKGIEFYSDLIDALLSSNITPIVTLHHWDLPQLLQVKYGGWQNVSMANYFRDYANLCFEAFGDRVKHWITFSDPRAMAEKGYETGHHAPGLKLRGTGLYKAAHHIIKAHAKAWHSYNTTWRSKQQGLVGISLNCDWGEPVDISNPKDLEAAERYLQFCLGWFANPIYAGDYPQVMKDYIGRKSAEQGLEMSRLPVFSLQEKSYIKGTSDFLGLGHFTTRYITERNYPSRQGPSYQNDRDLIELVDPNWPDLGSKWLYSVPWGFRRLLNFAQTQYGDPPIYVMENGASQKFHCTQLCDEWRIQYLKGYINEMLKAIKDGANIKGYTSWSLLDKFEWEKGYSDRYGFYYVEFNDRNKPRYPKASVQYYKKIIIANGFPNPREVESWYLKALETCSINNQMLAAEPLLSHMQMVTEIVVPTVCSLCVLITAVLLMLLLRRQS
B3: Mothers against decapentaplegic homolog 4 (Homo sapiens), Q13485 (parent)
chain: B1 chain
partner: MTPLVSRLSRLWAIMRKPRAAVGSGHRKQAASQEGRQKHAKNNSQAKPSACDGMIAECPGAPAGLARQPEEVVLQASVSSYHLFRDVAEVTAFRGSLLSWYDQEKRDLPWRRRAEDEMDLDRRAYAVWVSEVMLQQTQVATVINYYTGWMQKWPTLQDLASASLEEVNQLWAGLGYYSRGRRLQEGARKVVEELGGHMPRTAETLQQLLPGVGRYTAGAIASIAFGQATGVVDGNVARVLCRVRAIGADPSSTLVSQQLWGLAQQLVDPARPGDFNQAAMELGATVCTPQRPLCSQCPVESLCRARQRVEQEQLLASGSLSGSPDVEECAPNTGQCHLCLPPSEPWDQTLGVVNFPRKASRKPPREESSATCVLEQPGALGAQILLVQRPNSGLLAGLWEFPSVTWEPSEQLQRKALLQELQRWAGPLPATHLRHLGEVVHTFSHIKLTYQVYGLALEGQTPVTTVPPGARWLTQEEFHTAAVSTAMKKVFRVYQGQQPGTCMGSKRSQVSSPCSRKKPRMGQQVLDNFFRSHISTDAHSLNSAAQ
B4: Mothers against decapentaplegic homolog 4 (Homo sapiens), Q13485 (parent)
chain: B1 chain
partner: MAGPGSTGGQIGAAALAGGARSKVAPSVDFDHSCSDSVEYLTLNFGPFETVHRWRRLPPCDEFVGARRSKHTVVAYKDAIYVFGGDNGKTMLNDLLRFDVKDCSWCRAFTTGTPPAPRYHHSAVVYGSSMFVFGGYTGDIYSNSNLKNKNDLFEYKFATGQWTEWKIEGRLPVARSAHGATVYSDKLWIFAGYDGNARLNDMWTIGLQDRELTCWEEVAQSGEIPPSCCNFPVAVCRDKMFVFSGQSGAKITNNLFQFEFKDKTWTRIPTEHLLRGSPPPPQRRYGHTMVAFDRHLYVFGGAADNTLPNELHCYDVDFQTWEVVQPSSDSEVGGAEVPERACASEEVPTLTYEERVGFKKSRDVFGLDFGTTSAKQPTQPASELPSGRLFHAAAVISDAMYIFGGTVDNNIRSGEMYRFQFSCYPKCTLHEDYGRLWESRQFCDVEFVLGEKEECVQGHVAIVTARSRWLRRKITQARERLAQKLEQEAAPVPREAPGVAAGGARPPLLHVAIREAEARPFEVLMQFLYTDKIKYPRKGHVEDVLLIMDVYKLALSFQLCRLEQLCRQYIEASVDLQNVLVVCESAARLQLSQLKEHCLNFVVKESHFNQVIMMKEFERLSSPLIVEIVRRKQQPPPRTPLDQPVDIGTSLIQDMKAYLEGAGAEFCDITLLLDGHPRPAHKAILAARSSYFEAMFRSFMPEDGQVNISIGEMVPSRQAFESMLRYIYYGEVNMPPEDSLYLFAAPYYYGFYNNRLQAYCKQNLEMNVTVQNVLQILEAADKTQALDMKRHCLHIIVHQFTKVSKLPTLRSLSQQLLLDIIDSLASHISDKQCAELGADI
B5: Mothers against decapentaplegic homolog 4 (Homo sapiens), Q13485 (parent)
chain: B1 chain
partner: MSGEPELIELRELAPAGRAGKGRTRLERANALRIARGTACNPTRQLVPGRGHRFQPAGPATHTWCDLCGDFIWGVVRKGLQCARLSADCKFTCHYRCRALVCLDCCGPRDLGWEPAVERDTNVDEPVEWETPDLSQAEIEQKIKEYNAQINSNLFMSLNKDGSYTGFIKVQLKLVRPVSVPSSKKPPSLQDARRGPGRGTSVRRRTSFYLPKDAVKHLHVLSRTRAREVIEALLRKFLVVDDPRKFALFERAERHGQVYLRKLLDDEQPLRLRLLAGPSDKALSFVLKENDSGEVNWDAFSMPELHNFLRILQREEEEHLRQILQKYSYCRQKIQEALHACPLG
B6: Mothers against decapentaplegic homolog 4 (Homo sapiens), Q13485 (parent)
chain: B1 chain
partner: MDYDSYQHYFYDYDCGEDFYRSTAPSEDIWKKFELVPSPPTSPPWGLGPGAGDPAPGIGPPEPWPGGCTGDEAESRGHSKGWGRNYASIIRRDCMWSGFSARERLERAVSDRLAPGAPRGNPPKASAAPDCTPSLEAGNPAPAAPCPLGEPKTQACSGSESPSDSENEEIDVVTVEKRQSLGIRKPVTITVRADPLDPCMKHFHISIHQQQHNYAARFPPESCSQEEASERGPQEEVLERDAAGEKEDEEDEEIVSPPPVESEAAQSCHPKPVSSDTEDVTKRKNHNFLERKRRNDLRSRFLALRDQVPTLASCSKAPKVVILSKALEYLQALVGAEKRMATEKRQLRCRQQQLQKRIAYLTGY
B7: Mothers against decapentaplegic homolog 4 (Homo sapiens), Q13485 (parent)
chain: B1 chain
partner: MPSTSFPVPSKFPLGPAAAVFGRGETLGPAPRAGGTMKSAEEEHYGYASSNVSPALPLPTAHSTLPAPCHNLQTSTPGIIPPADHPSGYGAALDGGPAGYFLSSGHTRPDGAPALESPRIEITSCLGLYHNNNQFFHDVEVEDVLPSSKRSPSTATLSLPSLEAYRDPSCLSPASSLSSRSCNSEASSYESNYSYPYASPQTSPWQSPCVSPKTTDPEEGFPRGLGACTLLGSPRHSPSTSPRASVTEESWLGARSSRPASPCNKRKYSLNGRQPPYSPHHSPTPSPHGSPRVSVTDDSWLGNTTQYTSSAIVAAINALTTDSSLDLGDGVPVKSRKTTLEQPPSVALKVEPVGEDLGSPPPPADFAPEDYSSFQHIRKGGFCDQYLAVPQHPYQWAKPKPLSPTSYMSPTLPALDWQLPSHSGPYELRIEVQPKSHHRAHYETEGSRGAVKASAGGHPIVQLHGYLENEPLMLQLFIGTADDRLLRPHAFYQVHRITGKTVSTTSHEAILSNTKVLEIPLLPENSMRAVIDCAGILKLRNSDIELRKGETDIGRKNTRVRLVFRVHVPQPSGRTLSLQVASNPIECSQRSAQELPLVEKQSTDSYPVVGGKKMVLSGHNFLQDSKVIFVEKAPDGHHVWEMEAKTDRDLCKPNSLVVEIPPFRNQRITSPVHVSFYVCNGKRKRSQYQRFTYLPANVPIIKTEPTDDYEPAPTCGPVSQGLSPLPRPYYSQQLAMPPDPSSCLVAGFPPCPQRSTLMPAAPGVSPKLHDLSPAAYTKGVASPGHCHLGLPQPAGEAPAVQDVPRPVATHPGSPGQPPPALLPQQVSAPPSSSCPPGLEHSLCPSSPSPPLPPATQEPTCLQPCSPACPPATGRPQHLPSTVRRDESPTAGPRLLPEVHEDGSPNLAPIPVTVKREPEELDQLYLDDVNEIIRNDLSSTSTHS

Variants of: B1
Conditions: with rasf7_human RASSF7, Q02833

Row | effect of a mutation on the interaction | Variant
1 | with no effect | R361C

Variants of: B1
Conditions: with rasf7_human RASSF7, Q02833
Remark: another data set of the same source

Row | effect of a mutation on the interaction | Variant
2 | with no effect | D351H

Variants of: B1
Conditions: with rasf7_human RASSF7, Q02833
Remark: another data set of the same source

Row | effect of a mutation on the interaction | Variant
3 | with no effect | G386D

Variants of: B2
Conditions: with lctl_human LCTL

Row | effect of a mutation on the interaction | Variant
4 | with no effect | D351H

Variants of: B2
Conditions: with lctl_human LCTL
Remark: another data set of the same source

Row | effect of a mutation on the interaction | Variant
5 | with no effect | G386D

Variants of: B3
Conditions: with mutyh_human MUTYH

Row | effect of a mutation on the interaction | Variant
6 | with no effect | D351H

Variants of: B3
Conditions: with mutyh_human MUTYH
Remark: another data set of the same source

Row | effect of a mutation on the interaction | Variant
7 | with no effect | G386D

Variants of: B3
Conditions: with mutyh_human MUTYH
Remark: another data set of the same source

Row | effect of a mutation on the interaction | Variant
8 | with no effect | R361C

Variants of: B4
Conditions: with lztr1_human LZTR1, Q8N653

Row | effect of a mutation on the interaction | Variant
9 | with no effect | G386D

Variants of: B4
Conditions: with lztr1_human LZTR1, Q8N653
Remark: another data set of the same source

Row | effect of a mutation on the interaction | Variant
10 | with no effect | D351H

Variants of: B4
Conditions: with lztr1_human LZTR1, Q8N653
Remark: another data set of the same source

Row | effect of a mutation on the interaction | Variant
11 | with no effect | R361C

Variants of: B4
Conditions: with lztr1_human LZTR1, Q8N653
Remark: another data set of the same source

Row | effect of a mutation on the interaction | Variant
12 | decreasing interaction strength | R361C
13 | decreasing interaction strength | R361H

Variants of: B4
Conditions: with lztr1_human LZTR1, Q8N653
Remark: another data set of the same source

Row | effect of a mutation on the interaction | Variant
14 | with no effect | R361H

Variants of: B5
Conditions: with rasf1_human RASSF1, Q9NS23

Row | effect of a mutation on the interaction | Variant
15 | with no effect | G386D

Variants of: B5
Conditions: with rasf1_human RASSF1, Q9NS23
Remark: another data set of the same source

Row | effect of a mutation on the interaction | Variant
16 | with no effect | R361H

Variants of: B5
Conditions: with rasf1_human RASSF1, Q9NS23
Remark: another data set of the same source

Row | effect of a mutation on the interaction | Variant
17 | with no effect | R361C

Variants of: B5
Conditions: with rasf1_human RASSF1, Q9NS23
Remark: another data set of the same source

Row | effect of a mutation on the interaction | Variant
18 | with no effect | D351H

Variants of: B6
Conditions: with mycl_human MYCL

Row | effect of a mutation on the interaction | Variant
19 | with no effect | R361H

Variants of: B6
Conditions: with mycl_human MYCL
Remark: another data set of the same source

Row | effect of a mutation on the interaction | Variant
20 | with no effect | R361C

Variants of: B6
Conditions: with mycl_human MYCL
Remark: another data set of the same source

Row | effect of a mutation on the interaction | Variant
21 | with no effect | D351H

Variants of: B6
Conditions: with mycl_human MYCL
Remark: another data set of the same source

Row | effect of a mutation on the interaction | Variant
22 | with no effect | G386D

Variants of: B7
Conditions: with nfac1_human NFATC1, O95644

Row | effect of a mutation on the interaction | Variant
23 | with no effect | D351H

Variants of: B7
Conditions: with nfac1_human NFATC1, O95644
Remark: another data set of the same source

Row | effect of a mutation on the interaction | Variant
24 | with no effect | G386D
